The test system of data set [1] is MEF cells. Briefly: Detection of mitophagy in mammalian cells using mt-SRAI′. It counts as cell-based, Mouse. The note with it: 30 μM CCCP, 18 hours, MEF cells with mCherry-Parkin, compared to before addition. The procedure:
A construct that expresses mt-SRAI′ was introduced into MEF cells, in an attempt to visualize and detect mitophagy. mt-SRAI/pMCSTRE3G, pEF1α-Tet3G, and mCherry-Parkin/pcDNA3 which is a factor necessary for mitophagy, were introduced, each in an amount of 0.5 μg, into MEF cells with use of Lipofectamine (Registered Trademark) 2000. Six hours after the introduction, the medium was replaced by a nutrient medium containing 1 μg/ml doxycycline. Twenty-four hours later, induction of expression was stopped, and the nutrient medium was replaced by a nutrient medium containing no doxycycline, so that localization and degradation of a probe remaining in the cytoplasm was encouraged. Eighteen hours later, mitophagy was induced with use of 30 μM carbonyl cyanide m-chlorophenylhydrazone (CCCP), and then 18 hours later, the cells were subjected to imaging. […] In performing the imaging and obtaining and analyzing the images, the same conditions as those for the detection of autophagy in fixed mammalian cells were applied. Ratio images were generated in IMD display in a range of 0 to 0.4.

In another data set the test system is pepsin. Briefly: Resistance to degradation by acidic protease (incubation in pH 7.0 / pH 4.0 / pH 4.0 + pepsin buffers). It counts as physicochemical. The procedure: An Escherichia coli test was conducted which included a treatment of incubating purified recombinant proteins in each of three reaction buffers (pH 7.0/no pepsin, pH 4.0/no pepsin, pH 4.0/0.05% pepsin). The reaction buffers had been prepared as 25 mM HEPES buffer (pH 7.0) or 25 mM acetic acid buffer (pH 4.0) (119 mM NaCl, 2.5 mM KCl, 2 mM CaCl2, 2 mM MgCl2, and 30 mM glucose). A mixture obtained by adding each purified protein to each of the reaction buffers was incubated at 37° C. for 2 hours. The mixture was divided into two, each of which was then subjected to fluorescence intensity measurement and western blotting. The fluorescence intensity measurement was conducted after the pH of the mixture was prepared by diluting the mixture by 200 folds with use of a buffer at pH 7.0. For detection of a protein by means of western blotting, the following antibodies were used. AFFP: a rabbit anti-Azami-Green antibody (MBL, PM052M). EGFP and Ypet: a rabbit anti-GFP antibody (CST, #2555).
With use of SRAI/pRSETB, the same procedure as the fluorescence intensity measurement in the item <Confirmation of resistance to degradation by acidic protease> was carried out. Fluorescence intensity measurement was conducted by irradiating the AFFP part in SRAI with excitation light of 410 nm and irradiating the Ypet part in SRAI with excitation light of 500 nm.
Experiments were conducted to determine whether or not a probe (Rosella) reported by Rosado et al. was suitable for measuring autophagy as compared with SRAI. A construct of Rosella was expressed in Escherichia coli, and a recombinant fluorescent protein was purified. The recombinant fluorescent protein was incubated for 2 hours at 37° C. in a reaction buffer at pH 7.0, a reaction buffer at pH 4.0 (with 0.05% pepsin), and a reaction buffer at pH 4.0 (without 0.05% pepsin) in accordance with a previous report (Katayama, H, et al. (2008) Cell Struct. Funct. 33, 1-12), and was subjected to fluorescence measurement. Before the fluorescence measurement, pHs of these samples were adjusted to coincide with each other by diluting each sample with a buffer (pH 7.0) by 200 folds. The reaction buffers had each been prepared as 25 mM HEPES buffer (pH 7.0) or 25 mM acetic acid buffer (pH 4.0) (119 mM NaCl, 2.5 mM KCl, 2 mM CaCl2, 2 mM MgCl2, and 30 mM Glucose).

Data set [2] concerns MEF cells. Briefly: Detection of autophagy in mammalian cells (ratio imaging). In kind it is cell-based, Mouse. To be noted: living MEF cells, HBSS 37° C. 2 hours. The procedure: SRAI/pcDNA3 was introduced into MEF cells so as to express SRAI therein, and whether or not SRAI was suitable for observation of autophagy was evaluated. As a control, mCherry-EGFP was used. In order for mCherry-EGFP to be equivalent to an amino acid sequence presented in a previous report (Elsa-Noah N'Diaye, et al., (2009) EMBO reports 10, 173-179), (i) a BamHI/HindIII fragment of mCherry, which fragment contained no stop codon, (ii) a HindIII/EcoRI fragment of EGFP, in which fragment cDNA encoding a linker ([…]) (SEQ ID NO: 6) at N-terminus was added, and (iii) a BamHI/EcoRI fragment of pcDNA3 were ligated with each other, thereby producing mCherry-EGFP/pcDNA3. […]
In imaging, Cool SNAP HQ2 (Photometrics) was used as a camera, UplanF1 40× oil N.A.1.30 (Olympus) was used as an objective lens, and U-MCFPH Q (for AFFP), U-MYFPH Q (for Ypet), U-MRFPH Q (for mCherry), and U-MGFPH Q (for EGFP) were used as filter cubes (each cube is manufactured by Olympus). Images were obtained and analyzed with use of MetaMorph (Universal Imaging Corporation). […]
Further, Rosella was introduced into MEF cells in an attempt to visualize and detect autophagy. […] Images were obtained and analyzed with use of MetaMorph (Universal Imaging Corporation), and ratio images were produced as DsRed.T3/SE P in IMD display in a range of 0 to 1 (the scale bar for FIG. 12 is 20 μm).

Data set [3] concerns MEF cells. Briefly: Detection of autophagy in fixed mammalian cells. The note with it: MEF cells fixed 15 minutes in PBS containing 4% PFA. In kind it is cell-based, Mouse. The procedure: Subsequently, examination was conducted to examine whether or not SRAI would detection of autophagy also in fixed cells. The same operations as those of the autophagy detection above were conducted, except that (i) only SRAI was observed and (ii) after observation of living cells, the cells were fixed and observed again in the same field of view. The living cells were fixed for 15 minutes at room temperature in PBS containing 4% PFA, and cells thus fixed were subjected to washing with use of HBSS (5 minutes×3 times) and then subjected to observation for the second time.

The nature of data set [4]: Escherichia coli test: pH dependency of fluorescence intensity. It counts as physicochemical. The procedure: As a control for AFFP, a protein was selected as appropriate from green fluorescent proteins (EGFP and Sapphire), a yellow fluorescent protein (Ypet), and red fluorescent proteins (mCherry and Tag-RFP).
With use of EGFP and mCherry as controls, an Escherichia coli test was conducted to examine pH dependency of a change in fluorescence intensity of AFFP. In the Escherichia coli test, fluorescence intensity of a purified recombinant protein obtained was measured under nine pH conditions ranging from pH 4.0 to 8.0 with an increment of 0.5. The fluorescence intensity of each fluorescent protein under each pH condition was plotted. Note that the plotting was performed in such a manner that a maximum fluorescence intensity of each fluorescent protein was set to 1, and fluorescence intensities of the fluorescent protein under other pH conditions were plotted as relative values with respect to 1.
With use of EGFP, Sapphire, Ypet, mCherry, and Tag-RFP as controls, an Escherichia coli test was conducted to examine pH dependency of a change in fluorescence intensity of AFFP. In the Escherichia coli test, fluorescence intensities in respective cases of pH 7.0 and pH 4.0 were measured. Then, fluorescence intensities of the fluorescent proteins under the two pH conditions were compared. Note that the fluorescence intensity of each protein at pH 7.0 was set to 1. […]

A short description of data set [5]: Escherichia coli test: fluorescence intensity of purified recombinant proteins. It counts as physicochemical. To be noted: expressed at 18° C., buffer at pH 7.0, equal protein concentration. The procedure:
AFFP and mAG407 were expressed in Escherichia coli (18° C.) and a mammalian cell (Mouse embryonic fibroblast (MEF) cell) (37° C.) so as to be compared with each other in terms of fluorescence intensity. Comparison of fluorescence intensity between AFFP and mAG407 which were expressed in Escherichia coli was conducted in accordance with a previous report (Katayama, H, et al., (2008) Cell Struct. Funct. 33, 1-12). The concentrations of purified recombinant proteins were adjusted to coincide with each other, and the fluorescence intensity of each fluorescent protein was measured in a buffer at pH 7.0. A test conducted with respect to a protein expressed in Escherichia coli in accordance with the aforementioned Katayama, H, et al. will be hereinafter simply referred to as “Escherichia coli test.”
Both in the Escherichia coli test and the MEF cell test, AFFP was excited with use of excitation light having an excitation peak wavelength (406 nm) and mAG407 was excited with use of excitation light having an excitation peak wavelength (407 nm), in the measurement of fluorescence intensity. Further, both in the Escherichia coli test and the MEF cell test, the intensity of fluorescence emitted from AFFP was set to 1 in numerical representation and plotting of fluorescence intensity.

[6] abbreviates: acidic condition (pH 4.0/no pepsin).
Setting [7] is: acidic condition with pepsin added (pH 4.0/0.05% pepsin).
The mark [8] stands for this setting: neutral condition (pH 7.0/no pepsin).

Turning to `N#CC(C#N)=NNc1cccc(Cl)c1` [CCCP, carbonyl cyanide m-chlorophenylhydrazone], the “mitophagy induction (red points in ratio images)” value in the data set on MEF cells [1] was “significant increase of red points”.

As to “SRAI: FRET probe obtained by ligating Ypet, a (GGGGS)3 linker, and AFFP in this order”, the entries for the “fluorescence spectrum, excitation 410 nm” value in the data set on pepsin (setting [6]), with pepsin (setting [7]) and in the data set with pepsin (setting [8]) were “reduction in peak of fluorescence from Ypet”, “only a single peak that was based on fluorescence from AFFP” and “two peaks”, respectively. The “fluorescence spectrum, excitation 500 nm” value in the data set with pepsin (setting [6]) is listed as “single weak peak”; in the data set on pepsin (setting [7]), “no fluorescence”; in the data set on pepsin (setting [8]), “single intense peak”. The “autophagy signal (bright points, high-ratio structures in ratio image)” value with MEF cells [2] was “a bright point (dot) and a red point in a ratio image were observed”. For the same molecule, the “autophagy signal before and after fixation” value in the data set on MEF cells [3] is “little change was observed”.

B1: AFFP: modified mAG407 further having mutations T58S, V60S, T82A, R184S, K199E, Y210C, Y217A; green fluorescent protein used as FRET donor (protein)
chain: MVSVIKPEMKIKLCMRGTVNGHNFVIEGEGKGNPYEGTQILDLNVTEGAPLPFAYDILSTSFQYGNRAFTKYPADIQDYFKQAFPEGYHWERSMTYEDQGICTATSNISMRGDCFFYDIRFDGTNFPPNGPVMQKKTLKWEPDTEKMYVEDGVLKGDVNMRLLLEGGGHYRCDVKTTYKAKKEVSLPDAHKIDHRIEILEHDKDYNKVKLCENAVARASMLPSQAK
In the case of B1, the “pH dependency of fluorescence intensity” value in data set [4] (nine pH conditions, pH 4.0 to 8.0, controls EGFP and mCherry) is reported as “substantially constant fluorescence intensity”. For the same molecule, the “fluorescence intensity at pH 4.0 versus pH 7.0” value in data set [4] (pH 7.0 set to 1, controls EGFP, Sapphire, Ypet, mCherry, Tag-RFP) was “not affected by a change in pH”. In the data set on pepsin (pH 4.0/0.05% pepsin, 37° C., 2 hours), the “degradation by acidic protease (western blotting, fluorescence)” value is “not degraded by acidic protease”. For the same molecule, in data set [5], the “fluorescence intensity relative to mAG407” value stood at 2.5 times.

The record behind these values is US11203621B2, “PH-responsive proteolysis probe” (RIKEN, priority 2015, dated 2021).
